Assay [1] deals with T1, human hepcidin (mature, 25 amino acids) (human, mono-biotinylated in the ELISAs and on the KinExA beads (site not stated); unlabelled in solution and on the BIAcore chip).
T1 construct: the form is named in each assay field; also called rhuHepc; rhHepc
T1 peptide: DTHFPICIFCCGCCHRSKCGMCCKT
In words: antibody at 1:250 dilution; KinExA / BIAcore named in the paragraph.

The target of assay [2] is T1, human hepcidin (mature, 25 amino acids). In words: ELISA, mono-biotinylated human hepcidin on Neutravidin plate, pH 7.4. Here is the method:
(§1) Differential pH binding of the antibodies listed above in Table 3 was then determined by ELISA. 50 μL of Neutravidin (Pierce) at 8 μg/mL in 1×PBS was coated upon a Nunc Maxisorp 384-well plate, and incubated at 37° C. for 1 hr. After blocking the wells with 0.1% BSA/PBS/0.05% Tween20 for 1 hour at room temperature, plates were washed six times with PBS/0.05% Tween20. 25 μL of mono-biotinylated hepcidin at 50 ng/mL in 0.1% BSA/PBS/0.05% Tween20 was added to the 384-well plate, and incubated at room temperature for 1 hour. The plates were next washed six times with PBS/0.05% Tween20. Starting hepcidin antibody concentrations were normalized to 1 μg/mL for pH 5.5 and 6.0 conditions and to 100 ng/mL for pH 7.4 conditions. The hepcidin antibodies were serially diluted 3-fold in PBS/1% NFDM pH 7.4 and 4-fold in PBS/1% NFDM pH 6.0 and 5.5. The dilutions and titrations were performed in polypropylene 96-well dilution plates, and then were transferred in duplicate to a Neutravidin-coated 384-well plate. The biotinylated hepcidin and antibodies were incubated for 2 hours at room temperature. The plate was next washed six times with PBS/0.05% Tween20. 25 μL it of goat anti-huIgG-horseradish peroxidase at a 1:7000 dilution in 0.1% BSA/PBS/0.05% Tween20 was next added to each well of the assay plate. The plate was finally washed six times in PBS/0.05% Tween20. Enhanced K-Blue 3,3′,5,5′-Tetramethylbenzidine (TMB) Substrate (Neogen) was added and the reaction stopped using 1 M H₃PO₄ after 10 minutes of incubation at room temperature. The absorption was measured at 450 nm on a plate reader. Binding data were analyzed by non-linear regression analysis (sigmoidal dose-response, variable slope) to generate EC₅₀ values using GraphPad Prism® software. […] Double combinations of these mutants were made.

Assay [3] has the same target. In words: ELISA, mono-biotinylated human hepcidin on Neutravidin plate, pH 6.0. Here is the method: as §1
Background: In an ELISA, binding on a coated surface is turned into a signal by an enzyme label.

For assay [4] the target is unchanged. Nature of the assay: ELISA, mono-biotinylated human hepcidin on Neutravidin plate, pH 6.0 against pH 7.4. Here is the method: as §1
The target is the same in assay [5]. Nature of the assay: ELISA, mono-biotinylated human hepcidin on Neutravidin plate, pH 5.5. The protocol: as §1

As usually defined, the EC50 is the midpoint of the concentration-response curve.

B1: antibody 24E4 (antibody, V domains shown)
VH: QVQLVQSGAEVKEPGASVKVSCKASGYTFTSYGVSWVRQAPGQGLEWMGWISAYNGNTLYAQHLLGRVTMTTDTSTSTAYMELRSLRSDDTAVYYCAREDLGMGDYWGQGTLVTVSS
VL: QSVLTQPPSVSGAPGQRVTISCTGSSSNIGAGYGVYWYQQLPGTAPKLLIYGHNNRPSGVPDRFSGSKSDTSASLAITGLQAEDEADYYCQSYDSNLIGSVFGTGTKVTVL
notes: Human antibody from Xenomouse IgG2 or IgG4 mice
On to B1, for which, in assay [1], the “fold reduction in affinity at pH 6 compared to pH 7.4” value (from here on “fold reduction in affinity”) is approximately 10 fold.

B2: antibody 19B8 (antibody, V domains shown)
VH: QVHLQQWGAGPLKPSETLSLTCAVYNGSFSGYYWSWIRQPPGKGLDWIGDINHSGNTKYNPSLKSRVTISVDTAKNQFSLKLSSVTAADTAVYYCARGDFWSGFDWFDPWGQGTLVTVSS
VL: QSALTQPASVSGSPGQSITISCTGTSSNVGTYKLVSWYQQHPGKAPKLMISEVSKRPSGLSNRFSGSKSGNTASLTISGLQAEDEADYYCSSYAGDSTLVFGGGTKLTVL
notes: as for B1
Take B2: the “fold reduction in affinity” value in assay [1] was approximately 10 fold.

B3: antibody 20E12 (antibody, V domains shown)
VH: QVQLQQWGAGPLKPSETLSLTCAVYGGSFSGYYWSWIRQPPGKGLEWIGDINHSGNTKYNPSLKSRVTISVDTSKNQFSLKLNSVTAADTAVYYCARGDFWSGFDWFDPWGQGTLVTVSS
VL: QSALTQPASVSGSPGQSITISCTGTSSNVGSYNLVSWYQQHPGKAPKLMLSEVSKRPSGLSSRFSGSKSGDTASLTISGLQAEDEADYYCCSYAGSSTLVFGGGTKLTVL
notes: as for B1
Turning to B3, the “fold reduction in affinity” value in assay [1] was approximately 10 fold.

B4: antibody 22F12 (antibody, V domains shown)
VH: QVQLQQWGAGPLKPSETLSLTCAVYGGSFSGYYWSWIRQPPGKGLEWIGDINHSGNTKYNPSLKSRVTISVDTSKNHFSLKLSSVTAADTAVYYCARGDFWSGFDWFDPWGQGTLVTVSS
VL: QSALTQPASVSGSPGQSITISCTGTSSNVGSYNLVSWYQKHPGKAPKLMISEVSKRPSGLSNRFSGSKSGNTASLTISGLQAEDEADYYCCSYAGSSTLVFGGGTKLTVL
notes: as for B1
Consider B4, for which the “fold reduction in affinity” value in assay [1] was approximately 10 fold.

B5: antibody 23A11 (antibody, V domains shown)
VH: QVHLQQWGAGPLKPSETLSLTCAVYNGSFSGYYWSWIRQPPGKGLEWIGDINHSGNTKYNPSLKSRVTISVDTAKNQFSLKLNSVTAADTAVYYCARGDFWSGFDWFDPWGQGTLVTVSS
VL: QSALTQPASVSGSPGQSITISCTGTSSNVGTYKLVSWYQQHPGKAPKLMISEVSKRPSGLSNRFSGSKSGNTASLTISGLQAEDEADYYCSSYAGDSTLIVGGGTKLTVL
notes: as for B1
Consider B5, for which, in assay [1], the “fold reduction in affinity” value was approximately 10 fold.

B6: antibody 22H10 (antibody, V domains shown)
VH: QVHLQQWGAGPLKPSETLSLTCAVYNGSFSGYYWSWIRQPPGKGLEWIGDINHSGNTKYNPSLKSRVTISVDTAKNQFSLKLSSVTAADTAVYYCARGDFWSGFDWFDPWGQGTLVTVSS
VL: QSALTQPASVSGSPGQSITISCTGTSSNVGTYKLVSWYQQHPDKAPKLIISEVSKRPSGLSNRFSGSKSGNTASLTISGLQAEDEVDYYCSSYAGDSTLVFGGGTKLTVL
notes: as for B1
Turning to B6, in assay [1], the “fold reduction in affinity” value is approximately 10 fold.

B7: 15E1 A89H (antibody, V domains shown)
VH: QVQLVESGGGVVQPGRSLRLSCAASGFTFSSYGMHWVRQAPGKGLEWVAVIWYAESNKYYADSVKGRFTISRDNSKNTLYLQMNSLRAEDTAVYYCARAQEGIAPDAFDIWGQGTMVTVSS
VL: SYELTQPPSVSVSPGQTATITCSGDKLGERYACWYQQRPGQSPVLVIYQDSKRPSGIPERFSGSNSGNTATLTISGTQAMDEADYFCQHWYSSTNVLFGGGTKLTVL
notes: Histidine mutant of 15E1, transiently expressed in 293-6E cells; constant regions as in wild-type 15E1; also called A89H (light chain)
On to B7, for which the EC50 in assay [2] was 5.4 ng/mL; in assay [3], 10.6 ng/mL; in assay [5], 12 ng/mL. Moreover, the “fold increase in EC50 as the pH was lowered to 6.0” value in assay [4] was not below 1.5 fold.

B8: 15E1 A107H A89H (antibody, V domains shown)
VH: QVQLVESGGGVVQPGRSLRLSCAASGFTFSSYGMHWVRQAPGKGLEWVAVIWYAESNKYYADSVKGRFTISRDNSKNTLYLQMNSLRAEDTAVYYCARAQEGIAPDHFDIWGQGTMVTVSS
VL: SYELTQPPSVSVSPGQTATITCSGDKLGERYACWYQQRPGQSPVLVIYQDSKRPSGIPERFSGSNSGNTATLTISGTQAMDEADYFCQHWYSSTNVLFGGGTKLTVL
notes: Double histidine mutant of 15E1 (one change in each chain); constant regions as in wild-type 15E1; also called A107H (heavy chain)/A89H (light chain)
B8: the EC50 in assay [2] was found to be 6 ng/mL; in assay [3], 34.7 ng/mL. For the same molecule, the “fold increase in EC50 as the pH was lowered to 6.0” value in assay [4] was not below 5.5 fold.

B9: 15E1 N57H A107H (antibody, V domains shown)
VH: QVQLVESGGGVVQPGRSLRLSCAASGFTFSSYGMHWVRQAPGKGLEWVAVIWYAESHKYYADSVKGRFTISRDNSKNTLYLQMNSLRAEDTAVYYCARAQEGIAPDHFDIWGQGTMVTVSS
VL: SYELTQPPSVSVSPGQTATITCSGDKLGERYACWYQQRPGQSPVLVIYQDSKRPSGIPERFSGSNSGNTATLTISGTQAMDEADYFCQAWYSSTNVLFGGGTKLTVL
notes: Double histidine mutant of 15E1; constant regions as in wild-type 15E1; also called A107H (heavy chain)/N57H (heavy chain)
Regarding B9, the EC50 in assay [2] was 7.3 ng/mL; in assay [3], 75.6 ng/mL. The “fold increase in EC50 as the pH was lowered to 6.0” value in assay [4] is not below 5.5 fold.

B10: 15E1 W52H (antibody, V domains shown)
VH: QVQLVESGGGVVQPGRSLRLSCAASGFTFSSYGMHWVRQAPGKGLEWVAVIHYAESNKYYADSVKGRFTISRDNSKNTLYLQMNSLRAEDTAVYYCARAQEGIAPDAFDIWGQGTMVTVSS
VL: SYELTQPPSVSVSPGQTATITCSGDKLGERYACWYQQRPGQSPVLVIYQDSKRPSGIPERFSGSNSGNTATLTISGTQAMDEADYFCQAWYSSTNVLFGGGTKLTVL
notes: Histidine mutant of 15E1, transiently expressed in 293-6E cells; constant regions as in wild-type 15E1; also called W52H (heavy chain)
For the molecule B10, the EC50 in assay [2] was 4.5 ng/mL; in assay [3], 5.8 ng/mL; in assay [5], 17 ng/mL. Besides, the “fold increase in EC50 as the pH was lowered to 6.0” value in assay [4] is not below 1.5 fold.

B11: 15E1 L27H (antibody, V domains shown)
VH: QVQLVESGGGVVQPGRSLRLSCAASGFTFSSYGMHWVRQAPGKGLEWVAVIWYAESNKYYADSVKGRFTISRDNSKNTLYLQMNSLRAEDTAVYYCARAQEGIAPDAFDIWGQGTMVTVSS
VL: SYELTQPPSVSVSPGQTATITCSGDKHGERYACWYQQRPGQSPVLVIYQDSKRPSGIPERFSGSNSGNTATLTISGTQAMDEADYFCQAWYSSTNVLFGGGTKLTVL
notes: Histidine mutant of 15E1, transiently expressed in 293-6E cells; constant regions as in wild-type 15E1; also called L27H (light chain)
Take B11: the EC50 in assay [2] was 4.5 ng/mL; in assay [3], 6.5 ng/mL; in assay [5], 8 ng/mL. The “fold increase in EC50 as the pH was lowered to 6.0” value in assay [4] is not below 1.5 fold.

B12: 15E1 A107H L27H (antibody, V domains shown)
VH: QVQLVESGGGVVQPGRSLRLSCAASGFTFSSYGMHWVRQAPGKGLEWVAVIWYAESNKYYADSVKGRFTISRDNSKNTLYLQMNSLRAEDTAVYYCARAQEGIAPDHFDIWGQGTMVTVSS
VL: SYELTQPPSVSVSPGQTATITCSGDKHGERYACWYQQRPGQSPVLVIYQDSKRPSGIPERFSGSNSGNTATLTISGTQAMDEADYFCQAWYSSTNVLFGGGTKLTVL
notes: Double histidine mutant of 15E1 (one change in each chain); constant regions as in wild-type 15E1; also called A107H (heavy chain)/L27H (light chain)
Consider B12, for which the EC50 in assay [2] worked out at 4.3 ng/mL; in assay [3], 19.3 ng/mL; in assay [5], 316 ng/mL. In assay [4], the “fold increase in EC50 as the pH was lowered to 6.0” value was not below 5.5 fold.

B13: 15E1 A99H A107H (antibody, V domains shown)
VH: QVQLVESGGGVVQPGRSLRLSCAASGFTFSSYGMHWVRQAPGKGLEWVAVIWYAESNKYYADSVKGRFTISRDNSKNTLYLQMNSLRAEDTAVYYCARHQEGIAPDHFDIWGQGTMVTVSS
VL: SYELTQPPSVSVSPGQTATITCSGDKLGERYACWYQQRPGQSPVLVIYQDSKRPSGIPERFSGSNSGNTATLTISGTQAMDEADYFCQAWYSSTNVLFGGGTKLTVL
notes: Double histidine mutant of 15E1; constant regions as in wild-type 15E1; also called A107H (heavy chain)/A99H (heavy chain)
Regarding B13, the EC50 in assay [2] amounted to 3 ng/mL; in assay [3], 5.5 ng/mL; in assay [5], 16.1 ng/mL. The “fold increase in EC50 as the pH was lowered to 6.0” value in assay [4] is not below 5.5 fold.

The values are drawn from patent US20110150888A1 (Amgen, published 2011).
